Target: Paracoccus denitrificans FnrP (Paracoccus denitrificans)
Assay: SEC; analytical gel filtration under anaerobic conditions, calibrated Sephacryl S-100HR 16/50, assay buffer (25 mM HEPES, 2.5 mM CaCl2, 100 mM NaCl, 100 mM NaNO3, pH 7.5), 1 ml/min; reconstituted [4Fe–4S] FnrP (~90 % loaded) loaded at ~28 μM [4Fe–4S], in the absence of O2

stoichiometry N: 2
Substance: Paracoccus denitrificans FnrP (natural protein)
